Earlier results in publication PMC5428663, “Identification of small molecule inhibitors of Interleukin-18” (Scientific Reports, 2017).

Molecular target: IL-18 (Homo sapiens) (UniProt Q14116)
Sequence (Q14116 37-193): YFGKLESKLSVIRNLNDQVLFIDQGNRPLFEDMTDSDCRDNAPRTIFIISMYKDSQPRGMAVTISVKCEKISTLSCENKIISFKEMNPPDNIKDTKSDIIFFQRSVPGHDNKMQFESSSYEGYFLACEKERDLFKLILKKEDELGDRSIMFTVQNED

IL-18BP, sequence (O95998 31-194): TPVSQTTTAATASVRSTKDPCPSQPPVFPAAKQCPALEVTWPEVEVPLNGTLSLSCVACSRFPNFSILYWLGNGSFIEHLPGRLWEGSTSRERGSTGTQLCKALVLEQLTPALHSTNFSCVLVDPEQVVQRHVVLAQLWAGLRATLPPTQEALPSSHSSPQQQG

For IL-18BP (from UniProt O95998), the Kd is given as 0.4 nM.
